Reference: patent US8841274B2, “Protein arginine N-methyltransferase-5 method of cancer treatment” (priority 2009, dated 2014)

Experiments:
DP-1 = molecular target: T1, DP-1 (Homo sapiens, UniProt Q14186); test: Co-immunoprecipitation of ectopic E2F-1 with DP-1 in U2OS cells; format: cell-based; details: expression vector transfected into U2OS cells, HA11 IP
T1 construct: endogenous in cells; host or cells: U2OS
T1 sequence (Q14186 1-410): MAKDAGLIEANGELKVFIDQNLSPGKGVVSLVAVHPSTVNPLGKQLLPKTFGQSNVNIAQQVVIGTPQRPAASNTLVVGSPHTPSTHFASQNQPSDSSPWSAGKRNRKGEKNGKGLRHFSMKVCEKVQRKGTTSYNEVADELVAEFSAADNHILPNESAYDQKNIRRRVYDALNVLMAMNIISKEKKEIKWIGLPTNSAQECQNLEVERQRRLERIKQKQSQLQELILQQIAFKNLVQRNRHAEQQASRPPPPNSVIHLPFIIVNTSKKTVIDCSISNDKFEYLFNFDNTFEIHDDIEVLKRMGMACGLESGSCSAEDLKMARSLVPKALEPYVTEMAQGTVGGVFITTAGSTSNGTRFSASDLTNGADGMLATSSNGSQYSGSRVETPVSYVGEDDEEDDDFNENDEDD
Text: To establish whether E2F-1 was able to bind to PRMT5 in cells, the interaction between ectopic wild-type E2F-1 or KKK with PRMT5 was studied. […] Either a wild-type E2F-1 expression vector or a KKK expression vector was transfected into U2OS cells, and HA11 antibody was used for immunoprecipitation (IP) followed by immunoblotting with HA11 (E2F-1), PRMT5 or DP-1 as indicated. The level of input (In) protein is indicated. […] In contrast, binding to DP-1 was equivalent for both wild-type E2F-1 and KKK. […] Further, the RGRGR motif is necessary for the interaction, which also encompasses the site of PRMT5 methylation.
Cells were either left untransfected or transfected with expression vectors as indicated. At 48 h post transfection, cells were harvested in TNN buffer (50 mM Tris-HC1 [pH 7.4], 150 mM NaCl, 5 mM EDTA, 0.5% Ipegal, 50 mM NaF, 0.2 mM sodium orthovanadate and protease inhibitor cocktail (1 mM PMSF, leupeptin [1 μg/ml], aprotinin [1 μg/m1], and pepstatin A [1 μg/ml])) and rotated at 4° C. for 30 min to 1 h. The cell lysate was then homogenised, centrifuged at 11000 rpm for 10 min to remove cell debris and the supernatant collected. All lysates were normalized for protein concentration and, where appropriate, for transfection by β-galactosidase activity. […] Enhanced chemi-luminescence (Pierce Biotechnology, Rockford, Ill.) was used to visualize antibody binding.

U2OS cells = test: Apoptosis (sub-G1) by FACS in U2OS cells; format: cell-based; details: U2OS cells, expression vectors 48 h; relative to wild-type E2F-1; n=2
Experimental: Whether arginine methylation influences E2F-1-dependent apoptosis was investigated by comparing the ability of wild-type E2F-1 to the KK and KKK mutants to induce cells with a sub-G1 DNA content (Stevens et al 2003). […] U2OS cells were transfected with expression vectors encoding wild-type E2F-1, KK and KKK as indicated for 48 h and analysed by FACS as described. The graph represents the relative change in sub-G1 populations compared to the empty vector control treatment; n=2.
The graph (i) represents the relative number of sub-G I cells (compared to the control treatment) in the indicated conditions; and (ii) the level of PRMT5 and E2F-1; n=3.
PRMT5 (P) or control (C) non-targeting siRNA (25 nM) was transfected into HCT116 p53+/+ (i), HCT116 p53−/− (ii) or U2OS (iii) cells and the cells were harvested 72 h post-transfection and analysed by FACS. The graph represents the actual number of sub-G1 cells in the indicated conditions, and the immunoblot the level of PRMT5 and actin control; n=3.
PRMT5 (P), E2F-1 (E) or control (C) non-targeting siRNA was transfected into U2OS cells and harvested 72 h post-transfection and analysed by FACS as described.
Cells were transfected with the indicated expression vectors together with pBB14-GFP (for 48 h) to monitor transfection efficiency or siRNA (for 48 h or 72 h) with or without treatment of the DNA damage agent for the last 16 h. Then, cells were fixed and stained with propidium iodide and analyzed by Flow Cytometry.

binding to DP-1 in cells (DP-1): equivalent
Substance: KKK: methylation-defective E2F-1 protein containing the mutations R109K, R111K and R113K
apoptosis (sub-G1 population) (U2OS cells): increased levels of apoptosis
